# From paper PMC3720256
# T1: Ryp2;Ryp3 (Histoplasma capsulatum …, UniProt B2CQK0;B2CQK1 1-404;1-373, |)
# T1 sequence 1: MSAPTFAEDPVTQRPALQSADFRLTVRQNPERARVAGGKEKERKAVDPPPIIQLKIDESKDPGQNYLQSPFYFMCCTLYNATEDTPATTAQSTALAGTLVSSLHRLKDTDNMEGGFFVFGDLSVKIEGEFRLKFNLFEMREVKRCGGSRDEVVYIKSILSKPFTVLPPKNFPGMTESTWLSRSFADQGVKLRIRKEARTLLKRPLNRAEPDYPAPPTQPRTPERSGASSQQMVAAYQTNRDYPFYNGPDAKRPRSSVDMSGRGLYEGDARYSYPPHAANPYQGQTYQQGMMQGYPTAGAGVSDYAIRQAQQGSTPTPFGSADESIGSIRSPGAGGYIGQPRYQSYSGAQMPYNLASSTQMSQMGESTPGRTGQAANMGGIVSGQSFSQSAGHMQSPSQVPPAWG
# T1 sequence 2: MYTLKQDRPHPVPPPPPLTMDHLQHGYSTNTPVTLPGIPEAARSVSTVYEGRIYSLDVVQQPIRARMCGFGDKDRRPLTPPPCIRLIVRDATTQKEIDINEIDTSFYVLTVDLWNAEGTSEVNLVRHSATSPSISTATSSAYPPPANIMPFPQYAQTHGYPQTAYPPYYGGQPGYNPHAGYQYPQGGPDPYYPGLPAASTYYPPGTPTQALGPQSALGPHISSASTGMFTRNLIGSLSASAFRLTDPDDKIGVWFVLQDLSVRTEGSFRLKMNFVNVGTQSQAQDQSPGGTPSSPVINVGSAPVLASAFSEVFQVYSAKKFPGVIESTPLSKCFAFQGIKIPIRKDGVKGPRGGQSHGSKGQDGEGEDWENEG
# How the values were obtained:
# Test in all cases: EMSA
# [1] = target: Ryp1(N) (Histoplasma capsulatum G217B, UniProt A9QXX8 1-267); settings: protein: ivt; tags: C-terminal TEV site-6xHis; label: 5'-IRDye800 (Fwd strand); blunt
# [2] = target: Ryp1 (Histoplasma capsulatum G217B, UniProt A9QXX8 1-487); settings: protein: ivt; tags: C-terminal TEV site-6xHis; label: 5'-IRDye800 (Fwd strand); blunt
# [3] = target: T1, Ryp2;Ryp3; settings: protein: ivt;ivt; tags: C-terminal TEV site-6xHis;C-terminal TEV site-6xHis; copies: 1;1; label: 5'-IRDye800 (Fwd strand); blunt
Binder,binding result [1],binding result [2],binding result [3]
CBP1 promoter Motif A probe (dsDNA) DNA 1: TAATGGTTCCAGATTGAGTTTCGTTTAAAGTTCACAACTCAATTCGGCAGCTCCGCTGCA DNA 2: TGCAGCGGAGCTGCCGAATTGAGTTGTGAACTTTAAACGAAACTCAATCTGGAACCATTA,binds,binds,
CBP1 promoter Motif B probe (dsDNA) DNA 1: ATCAGGCGTCCGATCAGGTGATTGCTTTTAACCTTGGGATCCAGAGATCTCTCTATCTTT DNA 2: AAAGATAGAGAGATCTCTGGATCCCAAGGTTAAAAGCAATCACCTGATCGGACGCCTGAT,,,binds
